Reference: US20170102393A1

Experiments:
[1] = target: integrin β7 (β7 receptor) on cynomolgus monkey peripheral-blood T cells / lymphocytes (cynomolgus monkey (Macaca fascicularis)); assay: β7 receptor occupancy by flow cytometry against serum concentration, dosed cynomolgus monkeys
[2] = target: α4β7 integrin (Homo sapiens (Human)) (UniProt P13612); assay: blocking of α4β7 interactions with MadCAM-1, VCAM-1 and fibronectin (range told for the three ligands); assay not described
[3] = target: αEβ7 integrin (Homo sapiens (Human)) (UniProt P38570); assay: blocking of E-cadherin binding to αEβ7; assay not described
Chain of UniProt P38570 (P38570 19-1179 limits assumed, form in doubt, chain 1 of 2): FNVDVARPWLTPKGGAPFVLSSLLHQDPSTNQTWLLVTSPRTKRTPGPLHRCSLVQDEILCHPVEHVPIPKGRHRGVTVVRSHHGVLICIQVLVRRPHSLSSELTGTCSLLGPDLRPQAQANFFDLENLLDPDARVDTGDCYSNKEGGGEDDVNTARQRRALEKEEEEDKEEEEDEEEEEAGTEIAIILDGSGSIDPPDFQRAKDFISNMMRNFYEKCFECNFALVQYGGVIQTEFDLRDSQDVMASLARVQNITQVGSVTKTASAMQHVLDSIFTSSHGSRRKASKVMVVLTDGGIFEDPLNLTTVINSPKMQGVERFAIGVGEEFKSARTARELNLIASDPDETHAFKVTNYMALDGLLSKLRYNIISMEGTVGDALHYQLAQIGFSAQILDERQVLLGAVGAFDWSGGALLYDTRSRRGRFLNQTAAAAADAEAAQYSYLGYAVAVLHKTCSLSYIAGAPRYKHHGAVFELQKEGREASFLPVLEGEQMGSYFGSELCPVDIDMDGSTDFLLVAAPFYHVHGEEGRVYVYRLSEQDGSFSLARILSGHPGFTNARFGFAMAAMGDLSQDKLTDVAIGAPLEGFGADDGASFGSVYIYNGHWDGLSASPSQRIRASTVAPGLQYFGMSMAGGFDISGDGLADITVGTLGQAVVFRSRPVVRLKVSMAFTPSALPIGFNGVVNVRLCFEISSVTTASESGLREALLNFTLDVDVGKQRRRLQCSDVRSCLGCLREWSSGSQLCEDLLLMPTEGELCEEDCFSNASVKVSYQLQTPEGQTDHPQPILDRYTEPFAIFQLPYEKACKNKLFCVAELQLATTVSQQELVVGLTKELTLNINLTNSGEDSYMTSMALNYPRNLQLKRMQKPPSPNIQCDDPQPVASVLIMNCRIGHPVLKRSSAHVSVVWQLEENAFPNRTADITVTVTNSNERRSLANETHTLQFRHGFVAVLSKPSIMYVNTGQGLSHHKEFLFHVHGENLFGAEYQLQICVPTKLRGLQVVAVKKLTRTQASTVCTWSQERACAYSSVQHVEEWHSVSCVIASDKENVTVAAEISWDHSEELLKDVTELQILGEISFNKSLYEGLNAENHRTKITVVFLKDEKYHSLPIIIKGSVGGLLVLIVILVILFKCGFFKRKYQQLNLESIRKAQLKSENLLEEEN
Chain of UniProt P38570 (beta, as listed by the source limits assumed, form in doubt, chain 2 of 2): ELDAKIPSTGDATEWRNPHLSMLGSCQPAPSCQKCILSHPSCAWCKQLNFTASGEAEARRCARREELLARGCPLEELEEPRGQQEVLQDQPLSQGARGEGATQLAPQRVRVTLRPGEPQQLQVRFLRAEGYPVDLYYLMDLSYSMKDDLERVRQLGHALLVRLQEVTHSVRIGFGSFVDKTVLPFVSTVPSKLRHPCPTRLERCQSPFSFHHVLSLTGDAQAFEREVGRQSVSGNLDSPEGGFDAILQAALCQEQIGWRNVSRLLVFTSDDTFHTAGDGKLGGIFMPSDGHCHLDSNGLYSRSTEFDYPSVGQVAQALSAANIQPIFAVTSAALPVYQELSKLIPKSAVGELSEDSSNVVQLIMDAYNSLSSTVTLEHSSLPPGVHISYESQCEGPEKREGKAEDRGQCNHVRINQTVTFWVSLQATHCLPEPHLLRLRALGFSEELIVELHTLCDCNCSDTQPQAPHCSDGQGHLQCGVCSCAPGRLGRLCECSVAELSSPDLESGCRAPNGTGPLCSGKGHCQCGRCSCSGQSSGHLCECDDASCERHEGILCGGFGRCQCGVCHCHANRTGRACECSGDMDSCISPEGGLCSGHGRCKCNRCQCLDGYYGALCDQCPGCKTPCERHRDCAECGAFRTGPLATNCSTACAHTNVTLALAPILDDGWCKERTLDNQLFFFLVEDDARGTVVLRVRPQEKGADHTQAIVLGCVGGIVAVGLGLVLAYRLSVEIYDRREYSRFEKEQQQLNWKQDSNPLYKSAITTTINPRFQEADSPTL

[4] = target: integrin β7 (β7 receptor) on cynomolgus monkey peripheral-blood T cells / lymphocytes (cynomolgus monkey (Macaca fascicularis)); assay: cell-based or functional assay

B1: rhuMAb Beta7, recombinant humanized monoclonal anti-beta7 integrin antibody (antibody, from a related filing, V domains shown)
VH: EVQLVESGGGLVQPGGSLRLSCAASGFFITNNYWGWVRQAPGKGLEWVGYISYSGSTSYNPSLKSRFTISRDTSKNTFYLQMNSLRAEDTAVYYCARTGSSGYFDFWGQGTLVTVSS
VL: DIQMTQSPSSLSASVGDRVTITCRASESVDDLLHWYQQKPGKAPKLLIKYASQSISGVPSRFSGSGSGTDFTLTISSLQPEDFATYYCQQGNSLPNTFGQGTKVEIKR
- serum concentration that maintains complete β7-receptor saturation [1]: 1 to 10 µg/mL
- serum level below which available β7 is detected (desaturation) [1]: 10 µg/mL
- IC50 [2]: 0.07 to 0.1 nM
- IC50 [3]: 5 nM
- CD45RA+ β7intermediate T cells in peripheral blood, increase over baseline, four weekly doses of 25 mg/kg, cynomolgus monkeys [4]: 2.5 fold
- CD45RA- β7high T cells in peripheral blood, increase over baseline, four weekly doses of 25 mg/kg, cynomolgus monkeys [4]: 5 fold
- group mean CD45RA- β7high CD4+ lymphocytes in peripheral blood, increase over baseline, 5 mg/kg IV weekly, cynomolgus monkeys [4]: 4 to 5 fold
- group mean CD45RA- β7high CD4+ lymphocytes in peripheral blood, increase over baseline, 15 or 50 mg/kg IV or SC weekly, cynomolgus monkeys [4]: 5 to 6 fold
